{"source": "patent US10519419B2", "about": "“Method for producing culture medium composition” (NISSAN CHEMICAL CORPORATION, priority 2014, dated 2019)", "key": {"[1]": {"test": "State and viscosity measurement of medium composition (E type viscometer)", "assay_type": "physicochemical", "conditions": "DMEM/F-12; for viscosity: 37°C, 100 rpm", "description": "The viscosity of the liquid containing the structure can be measured, for example, by the method described in the below-mentioned Examples. Specifically, it can be measured under 37° C. conditions and using an E-type viscosity meter (manufactured by Toki Sangyo Co., Ltd., TV-22 type viscosity meter, model: TVE-22L, corn roter: standard roter 1° 34′×R24, rotation number 100 rpm).\nThis aqueous solution was allowed to cool to room temperature with stirring, and sterilized at 121° C. for 20 min in an autoclave. […] The viscosity of the medium compositions was measured using an E type viscometer (manufactured by Toki Sangyo Co., Ltd., Viscometer TVE-22L, standard roter 1° 34′×R24) under 37° C. condition at 100 rpm for 5 min.\nThe medium compositions prepared above were subjected to a suspension test of HeLa cell spheres and a viscosity measurement, in the same manner as with the deacylated gellan gum-containing medium. The viscosity of 1.0% (w/v) methylcellulose was measured at 50 rpm due to the measurement range of the apparatus."}, "HeLa cell spheres": {"system": "HeLa cell spheres", "test": "Cell suspension test with HeLa cell spheres", "assay_type": "cell-based, human", "conditions": "DMEM/F-12, 37°C, 1 hr", "description": "Human cervical cancer cell line HeLa (manufactured by DS PHARMA BIOMEDICAL CO., LTD.) was suspended in EMEM medium containing 10% (v/v) fetal bovine serum (manufactured by WAKO) at 250000 cells/mL, the suspension (10 mL) was plated on EZ SPHERE (manufactured by ASAHI GLASS CO., LTD.), and cultured in a CO2 incubator (5% CO2) for 3 days. The obtained suspension (10 mL) of spheres (diameter 100-200 μm) was centrifuged (200 G, 5 min) to allow for sphere sedimentation, and the supernatant was removed to give a sphere suspension (1.0 mL). Successively, the deacylated gellan gum-containing medium prepared above was placed in a 1.5 mL Eppendorf tube by 1.0 mL, and a HeLa cell sphere suspension (10 μL) was further added. The cell aggregate was dispersed by tapping, incubated at 37° C., and the dispersion state of the cells 1 hr later was visually observed.\nIn the same manner as in Reference Experimental Example 2, spheres of HeLa cells were formed, and several tens of the spheres were added to each medium (1 mL) prepared above, the mixture was stood still at 37° C. for 1 hr, and the suspended state of the sphere cells was visually observed. […] Furthermore, it was confirmed that addition of an equal amount of the medium to the cell suspension and centrifugation (300 to 400 G, 5 min) thereof result in sedimentation and recovery of the spheres of HeLa cells.\nIn the same manner as in Reference Experimental Example 2, spheres of HeLa cells were produced, and several tens of spheres were added to each medium (1 mL) prepared above, the mixture was stood still at 37° C. for 1 hr, and the suspended state of the sphere cells was visually observed. […] Furthermore, it was confirmed that centrifugation (200 G, 5 min) of the cell suspension containing 0.1% (w/v) diutan gum result in sedimentation and recovery of the spheres of HeLa cells."}}, "data": [{"substance": "collagen", "values": [{"measurement": "state", "setting": "[1]; collagen 0.01% (w/v)", "result": "liquid"}, {"measurement": "viscosity", "setting": "[1]; collagen 0.01% (w/v)", "result": 1.18, "unit": "mPa · s"}, {"measurement": "state", "setting": "[1]; collagen 0.05% (w/v)", "result": "liquid/solid"}, {"measurement": "viscosity", "setting": "[1]; collagen 0.05% (w/v)", "result": "unmeasurable"}, {"measurement": "state", "setting": "[1]; collagen 0.1% (w/v)", "result": "solid (gel)"}, {"measurement": "viscosity", "setting": "[1]; collagen 0.1% (w/v)", "result": "unmeasurable"}, {"measurement": "state", "setting": "[1]; collagen 0.2% (w/v)", "result": "solid (gel)"}, {"measurement": "viscosity", "setting": "[1]; collagen 0.2% (w/v)", "result": "unmeasurable"}, {"measurement": "HeLa cell suspension/sedimentation", "setting": "HeLa cell spheres; collagen 0.01% (w/v)", "result": "sedimentation"}, {"measurement": "HeLa cell suspension/sedimentation", "setting": "HeLa cell spheres; collagen 0.05% (w/v)", "result": "suspension"}, {"measurement": "HeLa cell suspension/sedimentation", "setting": "HeLa cell spheres; collagen 0.1% (w/v)", "result": "suspension"}, {"measurement": "HeLa cell suspension/sedimentation", "setting": "HeLa cell spheres; collagen 0.2% (w/v)", "result": "suspension"}]}]}
